The values below come from article PMC11480844 (2024).

B1: H2-Kb / Ed16-1 (parent complex)
chain 1: GEQVEQRPPHLSVREGDSAVITCTYTDPNSYYFFWYKQEPGASLQLLMKVFSSTEINEGQGFTVLLNKKDKRLSLNLTAAHPGDSAAYFCAVSGSNNRIFFGDGTQLVVKP
chain 2: EAAVTQSPRSKVAVTGGKVTLSCHQTNNHDYMYWYRQDTGHGLRLIHYSYVADSTEKGDIPDGYKASRPSQENFSLILELASLSQTAVYFCASRTGTDYTFGSGTRLLVI
chain 3: not shown
chain 4: IQKTPQIQVYSRHPPENGKPNILNCYVTQFHPPHIEIQMLKNGKKIPKVEMSDMSFSKDWSFYILAHTEFTPTETDTYACRVKHDSMAEPKTVYWDRDM
chain 5: SIINFEKL

In this assay the parent is B1. Kind of assay: % of reporter cells activated (NFAT-GFP), raw. Further: test concentration or dose not given here.
As for chain 5 N4F, the ratio to parent stood at 0.0302. With chain 5 N4C the figure was 0.00253. The figure for chain 5 N4R is 0.19; for chain 5 N4L it is 0.617; for chain 5 N4M it is 0.000769. With chain 5 N4G the figure was 0.0463; with chain 5 N4S, 0.492.

Take chain 5 N4E: the ratio to parent stood at 0.00277. The figure for chain 5 N4H is 0.0158; for chain 5 N4T it is 0.0307. The figure for chain 5 N4D is 0.0372. The figure for chain 5 N4A is 0.124; for chain 5 N4I it is 0.0165; for chain 5 N4V it is 0.00138. Turning to chain 5 N4K, the ratio to parent came out at 0.211. The figure for chain 5 N4W is 0.0025. The figure for chain 5 N4Q is 0.000537. The figure for chain 5 N4P is 0.0188; for chain 5 N4Y it is 0.021; for chain 5 S1V it is 0.0177. As for chain 5 S1P, the ratio to parent amounted to 0.00277. chain 5 S1G: the ratio to parent is 0.521. With chain 5 S1I the figure was 0.00139; with chain 5 S1R, 0.0909; with chain 5 S1W, 0.0447.

For the variant chain 5 S1K, the ratio to parent is 0.038. As to chain 5 S1H, the ratio to parent is 0.199. The figure for chain 5 S1E is 0.0746. On to chain 5 S1M, for which the ratio to parent was 0.0059. As for chain 5 S1C, the ratio to parent worked out at 0.0551.

On to chain 5 S1N, for which the ratio to parent was determined as 0.0326. The figure for chain 5 S1Y is 0.419.

As for chain 5 S1L, the ratio to parent amounted to 0.00107. The figure for chain 5 S1Q is 0.0527; for chain 5 S1F it is 0.0013; for chain 5 S1T it is 0.66.

Take chain 5 S1A: the ratio to parent is 0.48. Take chain 5 E6L: the ratio to parent stood at 0.0059.

With chain 5 E6M, the ratio to parent amounted to 0.219.

Turning to chain 5 E6R, the ratio to parent is 0.00877. With chain 5 E6I the figure was 0.0059; with chain 5 E6Q, 0.187.

Consider chain 5 E6K, for which the ratio to parent was determined as 0.608.

With chain 5 E6V, the ratio to parent stood at 0.00707. The figure for chain 5 E6W is 0.117.

Consider chain 5 E6G, for which the ratio to parent turned out to be 0.187. With chain 5 E6S the figure was 0.0513; with chain 5 E6T, 0.0356; with chain 5 E6C, 0.00912.

Consider chain 5 E6Y, for which the ratio to parent worked out at 0.106. With chain 5 E6H the figure was 0.0978. With chain 5 E6P the figure was 0.00132.

As to chain 5 E6D, the ratio to parent is 0.371. With chain 5 E6F the figure was 0.153; with chain 5 E6A, 0.0174. With chain 5 E6N, the ratio to parent is 0.0535. The figure for chain 5 I3C is 0.777; for chain 5 I3F it is 0.0814. The figure for chain 5 I3Y is 0.00742; for chain 5 I3R it is 0.301. The figure for chain 5 I3P is 0.865; for chain 5 I3K it is 0.521; for chain 5 I3W it is 0.744. chain 5 I3H: the ratio to parent was 0.33. With chain 5 I3N the figure was 0.755; with chain 5 I3Q, 0.605; with chain 5 I3E, 0.864.

Take chain 5 I3D: the ratio to parent worked out at 0.172. With chain 5 I3G the figure was 0.473; with chain 5 I3V, 1.06; with chain 5 I3S, 0.592. Consider chain 5 I3M, for which the ratio to parent was 0.842. As to chain 5 I3A, the ratio to parent came out at 0.883. The figure for chain 5 I3L is 0.889; for chain 5 I3T it is 0.716; for chain 5 I2A it is 1.01. The figure for chain 5 I2C is 1.04; for chain 5 I2N it is 0.607. With chain 5 I2D the figure was 0.912; with chain 5 I2Y, 0.597; with chain 5 I2Q, 0.713. In the case of chain 5 I2W, the ratio to parent was found to be 0.749. With chain 5 I2F the figure was 0.849; with chain 5 I2E, 0.976. The figure for chain 5 I2H is 0.627. With chain 5 I2S, the ratio to parent is 0.94. As to chain 5 I2K, the ratio to parent turned out to be 0.743. The figure for chain 5 I2V is 1.1; for chain 5 I2M it is 1.06. The figure for chain 5 I2G is 1.04. The figure for chain 5 I2P is 0.794. As to chain 5 I2L, the ratio to parent came to 1.08. On to chain 5 I2T, for which the ratio to parent was 0.926. With chain 5 I2R the figure was 0.651; with chain 5 K7P, 1.17. Regarding chain 5 K7R, the ratio to parent was 1.09.

On to chain 5 K7Q, for which the ratio to parent was 1.01.

chain 5 K7G: the ratio to parent is 0.924. Regarding chain 5 K7A, the ratio to parent is 0.91. The figure for chain 5 K7M is 0.848; for chain 5 K7Y it is 1.04. The figure for chain 5 K7F is 0.632; for chain 5 K7S it is 0.912; for chain 5 K7H it is 1.18. With chain 5 K7W the figure was 0.776; with chain 5 K7L, 0.832. With chain 5 K7I, the ratio to parent amounted to 0.847.

On to chain 5 K7D, for which the ratio to parent turned out to be 0.979. In the case of chain 5 K7C, the ratio to parent worked out at 0.781. The figure for chain 5 K7E is 0.559; for chain 5 K7T it is 0.905; for chain 5 K7V it is 0.771.

As for chain 5 K7N, the ratio to parent came out at 0.903. The figure for chain 5 F5S is 0.917; for chain 5 F5N it is 0.725; for chain 5 F5L it is 1.02. Regarding chain 5 F5T, the ratio to parent worked out at 0.843. Take chain 5 F5C: the ratio to parent is 0.943.

For chain 5 F5G, the ratio to parent was determined as 0.516. In the case of chain 5 F5W, the ratio to parent worked out at 0.699. Regarding chain 5 F5M, the ratio to parent stood at 1.08. As for chain 5 F5D, the ratio to parent worked out at 0.823.

Turning to chain 5 F5V, the ratio to parent was found to be 0.848. With chain 5 F5Y the figure was 1.07; with chain 5 F5K, 0.803. The figure for chain 5 F5R is 0.818; for chain 5 F5P it is 0.181.

Consider chain 5 F5I, for which the ratio to parent was 0.96. With chain 5 F5A the figure was 0.976; with chain 5 F5E, 0.742; with chain 5 F5Q, 0.97. The figure for chain 5 F5H is 0.943; for chain 5 L8Q it is 1.07; for chain 5 L8E it is 0.883. With chain 5 L8T the figure was 0.968; with chain 5 L8A, 1.01. For chain 5 L8Y, the ratio to parent was 1. The figure for chain 5 L8I is 1.02.

On to chain 5 L8F, for which the ratio to parent is 0.952. The figure for chain 5 L8D is 0.834. With chain 5 L8V the figure was 0.83; with chain 5 L8H, 1.01. chain 5 L8C: the ratio to parent came out at 0.85. Turning to chain 5 L8G, the ratio to parent turned out to be 0.994. chain 5 L8W: the ratio to parent amounted to 0.828. The figure for chain 5 L8M is 1.03; for chain 5 L8P it is 1.07. With chain 5 L8N the figure was 0.861. The figure for chain 5 L8S is 0.941; for chain 5 L8R it is 0.935.
